Measured values taken from US20100009439A1.

Key:
Conditions in all cases: remark: other sources report otherwise
[1] = target: T1, purified full-length human IGF-I receptor (human), P08069; experiment: ELISA titration on biotinylated human IGF-I receptor captured on streptavidin; non-linear regression for one-site binding
[2] = target: T1, purified full-length human IGF-I …; experiment: ELISA, hybridoma supernatant on coated purified human IGF-I receptor
[3] = target: T1, purified full-length human IGF-I …; experiment: ELISA titration on human IGF-I receptor, similar to that of the whole antibody

Row | Binder | Kd [1] | absorbance units (405 nm) (absorbance units) [2] | Kd [3]
1 | murine EM164 antibody (antibody, V domains shown, here or on the partner: biotinylated with PEO-maleimide-biotin in the captured format) VH: QVQLQQSGAELVKPGASVKLSCKASGYTFTSYWMHWVKQRPGQGLEWIGEINPSNGRTNYNEKFKRKATLTVDKSSSTAYMQLSSLTSEDSAVYYFARGRPDYYGSSKWYFDVWGAGTTVTVS VL: DVLMTQTPLSLPVSLGDQASISCRSSQSIVHSNVNTYLEWYLQKPGQSPKLLIYKVSNRFSGVPDRFSGSGSGTDFTLRISRVEAEDLGIYYCFQGSHVPPTFGGGTKLEIKR | 0.1 nM | 1.2 | 
2 | Fab fragment of EM164 antibody (Fab, V domains shown, here or on the partner: biotinylated with PEO-maleimide-biotin in the captured format) VH: QVQLQQSGAELVKPGASVKLSCKASGYTFTSYWMHWVKQRPGQGLEWIGEINPSNGRTNYNEKFKRKATLTVDKSSSTAYMQLSSLTSEDSAVYYFARGRPDYYGSSKWYFDVWGAGTTVTVS VL: DVLMTQTPLSLPVSLGDQASISCRSSQSIVHSNVNTYLEWYLQKPGQSPKLLIYKVSNRFSGVPDRFSGSGSGTDFTLRISRVEAEDLGIYYCFQGSHVPPTFGGGTKLEIKR |  |  | 0.3 nM
